Experimental findings from publication PMC11148156, “Substrate scope expansion of 4-phenol oxidases by rational enzyme selection and sequence-function relations” (Communications Chemistry, 2024) are described below.

In one series the target is T1, NspEUGO (Nocardioides sp. YR527, UniProt A0A1G9AL67).
T1 construct: gene SAMN05428985_103382; recombinant, expressed in E. coli; flavin-dependent; details in supplement
T1 sequence (A0A1G9AL67 1-529): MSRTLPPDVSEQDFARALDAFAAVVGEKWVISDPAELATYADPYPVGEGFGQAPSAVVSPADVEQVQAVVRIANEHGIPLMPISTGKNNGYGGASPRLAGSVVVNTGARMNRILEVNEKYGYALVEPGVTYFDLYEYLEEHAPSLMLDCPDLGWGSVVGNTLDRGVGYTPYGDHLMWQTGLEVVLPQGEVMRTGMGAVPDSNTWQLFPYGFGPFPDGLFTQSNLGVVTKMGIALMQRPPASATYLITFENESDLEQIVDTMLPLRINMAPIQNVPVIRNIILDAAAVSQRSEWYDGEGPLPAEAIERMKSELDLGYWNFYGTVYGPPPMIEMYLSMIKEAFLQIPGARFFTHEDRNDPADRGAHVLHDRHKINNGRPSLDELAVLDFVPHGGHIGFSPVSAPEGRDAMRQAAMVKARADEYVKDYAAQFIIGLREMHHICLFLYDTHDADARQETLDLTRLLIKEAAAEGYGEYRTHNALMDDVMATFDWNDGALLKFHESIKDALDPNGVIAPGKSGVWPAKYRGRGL
Briefly: xylenol orange assay (initial rate). The settings on record: 2 mM substrate, 50 mM potassium phosphate pH 7.5. Type of series: biochemical.

In the next series the target is T2, RjEUGO (Rhodococcus jostii, UniProt Q0SBK1).
T2 construct: gene RHA1_ro03282; recombinant, expressed in E. coli; flavin-dependent; details in supplement
T2 sequence (Q0SBK1 1-526): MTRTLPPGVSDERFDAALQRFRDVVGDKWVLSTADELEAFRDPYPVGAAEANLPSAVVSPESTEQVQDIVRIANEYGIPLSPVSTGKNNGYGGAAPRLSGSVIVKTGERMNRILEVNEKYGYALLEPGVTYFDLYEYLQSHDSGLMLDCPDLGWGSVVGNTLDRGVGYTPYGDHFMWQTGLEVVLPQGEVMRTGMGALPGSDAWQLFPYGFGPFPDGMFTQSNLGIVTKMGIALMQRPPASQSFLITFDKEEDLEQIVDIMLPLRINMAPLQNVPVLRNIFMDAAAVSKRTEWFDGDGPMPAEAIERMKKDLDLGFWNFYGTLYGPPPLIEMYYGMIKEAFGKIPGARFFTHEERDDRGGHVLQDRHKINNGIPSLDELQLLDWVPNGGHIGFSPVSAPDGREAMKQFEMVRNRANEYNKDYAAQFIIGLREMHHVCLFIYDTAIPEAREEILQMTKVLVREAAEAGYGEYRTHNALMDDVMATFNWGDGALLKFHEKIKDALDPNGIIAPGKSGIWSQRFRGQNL
Briefly: xylenol orange assay (initial rate). The settings on record: 2 mM substrate, 50 mM potassium phosphate pH 7.5. It is filed as biochemical.

Substrate in series [1]: C=CCc1ccc(O)c(OC)c1
Put plainly: Michaelis-Menten kinetics. Type of series: biochemical, Geodermatophilaceae bacterium. The following applies: optimal conditions for both enzymes (see supplement).

Substrate in series [2]: COc1cc(CO)ccc1O
Briefly: Michaelis-Menten kinetics. It is filed as biochemical, Geodermatophilaceae bacterium. The following applies: optimal conditions for both enzymes (see supplement).

Substrate in series [3]: OCc1ccc(O)cc1
Put plainly: Michaelis-Menten kinetics. Type of series: biochemical, Geodermatophilaceae bacterium. The settings on record: pH 9.5.

Substrate in series [4]: C=CCc1ccc(O)c(OC)c1
Briefly: Michaelis-Menten kinetics. The following applies: optimal conditions for both enzymes (see supplement). It is filed as biochemical, Arthrobacter sp. UCD-GKA.

Substrate in series [5]: COc1cc(CO)ccc1O
Briefly: Michaelis-Menten kinetics. It is filed as biochemical, Arthrobacter sp. UCD-GKA. The following applies: optimal conditions for both enzymes (see supplement).

Substrate in series [6]: OCc1ccc(O)cc1
Briefly: Michaelis-Menten kinetics. It is filed as biochemical, Arthrobacter sp. UCD-GKA. The settings on record: pH 9.5.

Regarding `CCCCOCc1ccc(O)c(OC)c1` [compound 13, vanillyl butyl ether], the “xylenol orange assay (initial rate)” value on NspEUGO is on record as “NspEUGO which is the most active wildtype enzyme on vanillyl butyl ether”.
As for `Oc1ccc(C2CCCC2)cc1` [compound 42, 4-cyclopentyl phenol], the “xylenol orange assay (initial rate)” value at RjEUGO was “RjEUGO which was the most active wildtype enzyme for 4-cyclopentyl phenol”.

B1: GbEUGO (Geodermatophilaceae bacterium) (protein)
chain: MSRILPPELSDSDFDAAIARFRDVVGEKHVLTEDGDLSRYRDPYPVGGQPSGGASAAVAPETSEQVQEIVRIANEYGVPLSPISTGKNNGYGGGQPRLSGAVVVDTGLRMNRILEVNEKFGYALLEPGVSYFDLYEHLQANAPSLMLDCPDLGWGSVVGNTLDRGVGYTPYGDHLMWQTGLEVVLPTGDVMRTGMGAVPGSNAWQLFPYGFGPFPDGLFTQSNLGIVTKMGIALMQRPPASETFVISFDREEDLEQVVDIMLPLRINMAPLQNVPVLRNIILDAGVVSKRTEWHDGDGPLPPEAISRMKAELGLGYWNLYGTVYGPPPVLEAHLGIIKDAFLQVPGSRFATTQDRDEATDRGAHVLHDRHRINNGIPSLDEMKLMEFVPNGGHIGFSPVSAPDGADALRQSQMVRRRADEYRKDYAAQFIVGLREMHHIGLFLFDTTDAVARQETLDLARVLIDEAAAAGYGEYRTHNALMDQVMGTYNWGGDALLKFHETIKDALDPNSVMAPGKSGIWGRKYRDRALA
notes: recombinant, expressed in E. coli; flavin-dependent; details in supplement
For B1, the Km (in general, the substrate concentration at which the rate is half of its maximum) in series [1] turned out to be 23 ± 1 µM; in series [2] it was 31 ± 1 µM; in series [3] it was 455 ± 50 µM. Also, the values for the catalytic constant (kcat) in series [1], in series [2] and in series [3] were 23 ± 0.2 s⁻¹, 16 ± 0.4 s⁻¹ and 18 ± 1 s⁻¹, respectively.

B2: AspEUGO (Arthrobacter sp. UCD-GKA) (protein)
chain: MSRIIPLDVSEADFDAALEEFRGALGAQWVLSSPVELEAFADPYPTTNGLEFLPGAVISPSTPEEVQVIVGIANKYKVPLSPVSTGKNLGYGGAAPRLSGTVVVNTGERMNKIIEVNEKYAFALVEPGVTYFDLYNHIQEKGYNLWIDVPDLGWGSIVGNTLDRGVGYTPYGDHWSWQTGLEVVLPDGDLLRTGMGAMSGSDAWQLFPYGFGPYPDGLFSQSNYGIVTKLGIALMPAPPASETFLITFENEADLEQVIDIMLPLRIGMAPLQNVPVLRNIFMDAAAVSHRDEWHAGPGHLSDDEIKTMQRELNLGYWNLYASVYGPPPQIEMFLAMIKEAFLQVPGARFATTKDRPESPEDRGGHVLHDRHKINRGIPTIEERHLMDWVPNGGHTSFSPVSAPDGKDAMRQALMVKKRADEFGQDYAAQFIVGLREMHHICLFLYNTAVPRERDNTLAMARILVEEAADAGYGEYRTHLALMDQVMATFDYNDGALLRFHERVKDALDPNSIMAPGKSGIWGARYRDRGLELLHAPALEDSTPNSA
notes: as for B1
As for B2, the Km in series [4] turned out to be 28 ± 1 µM; in series [5], 49 ± 3 µM; in series [6], 33 ± 2 µM. Moreover, the catalytic constant (kcat) (as a rule, the number of substrate molecules converted per active site and unit of time at saturation) stood at 21 ± 0.4 s⁻¹ in series [4], 24 ± 0.8 s⁻¹ in series [5] and 18 ± 1 s⁻¹ in series [6].
